Among the data in article PMC10360031 are mean rupture force and binding probability (specific adhesion events) (% of force curves) values, retold here.

The assay has as its target cell-surface vimentin (CSV) on mouse embryonic fibroblasts mEF +/+ (mouse (endogenous in mEF)) (UniProt P20152). Put plainly: AFM single-molecule force spectroscopy.

“Brazil P.1 RBD (from UniProt P0DTC2) (domain or fragment)” had a mean rupture force at 5 um/s of 31.3 pN. The substance “South Africa B.1.135 RBD (from UniProt P0DTC2) (domain or fragment)” yielded a mean rupture force at 5 um/s of 25.8 pN. On to “wild-strain SARS-CoV-2 spike protein RBD (from UniProt P0DTC2) (domain or fragment)”, for which the binding probability (specific adhesion events) (% of force curves) is under 10.
